Results on 14 sequences are retold here after the supplement of paper PMC9170038.

This data set deals with MS2 coat protein. The data set can be described thus: apparent KD of MS2 coat protein; designed switch direction (-1 OFF switch, 1 ON switch): -1; higher = weaker reporter binding. An outline of the steps: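 For each design, the apparent KD is the median over clusters of curves fitted to normalised cluster fluorescence. Clusters held RNA switches with common flanks, transcribed on Illumina chips by stalled E. coli RNA polymerase. These were titrated with SNAP-549-labelled MS2 coat protein, doubling from 0.7 or 1.5 nM to 3 µM, without input, with 200 uM small-molecule ligand, or with an oligonucleotide input.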

[1] abbreviates: input ligand: microRNA oligo, concentration not stated.
Where [2] appears, read: Eterna round: R95, input ligand: microRNA oligo, concentration not stated.

“GCACUGCGAGGAUAUACAUGAGGAUCACCCAUGUGUCGGCAGACAUGUUAUUUCUAAUGUAGAAGGCGCGUAAA [JR_Ex3_Sub002] (Eterna round: R97, puzzle: Exclusion 3)”: the “apparent KD of MS2 coat protein” value runs as follows: (input ligand: FMN 200 uM) 340 nM; (input ligand: none) 68.8 nM.

For “GCACUGCGAGGAUAUACAUGAGGAUCACCCAUGUGUCGGCAGCCACGGUAGUACAAGUGUAGAAGGCGCGUUAG [EX3 #47] (Eterna round: R97, puzzle: Exclusion 3)”, the “apparent KD of MS2 coat protein” value by setting is: (input ligand: FMN 200 uM) 140 nM; (input ligand: none) 69.1 nM.

In the case of “GCAGCAACUCUAAUCAACCAAACAUGAGGAUCACCCAUGUCUCAGGAUAUGGUCUGGAUUACAGGCCAGAAGGGAGAAAGCUGC [Eli exng3 - 044] (Eterna round: R96, puzzle: Exclusion NG 3)”, the “apparent KD of MS2 coat protein” value is 9 nM (input ligand: FMN 200 uM), 9.77 nM under setting [1] and 13.4 nM (input ligand: none).

As for “GCAGCAUAGUUUACUAACUGUUACAUGAGGAUCACCCAUGUUCAGGAUAUGGUCUGGAUUACAGGCCAGAAGGGAGCAAGCUGC [Eli exng3 - 027] (Eterna round: R96, puzzle: Exclusion NG 3)”, the “apparent KD of MS2 coat protein” value runs as follows: (input ligand: FMN 200 uM) 13.3 nM; under setting [1], 10.7 nM; (input ligand: none) 13.8 nM.

As for “GCAGCAUAGUUUACUAACUGUUACAUGAGGAUCACCCAUGUUUAGGAUAUGGUCUGGAUUACAGGCCAGAAGGGAACAAGCUGC [Eli exng3 - 032] (Eterna round: R96, puzzle: Exclusion NG 3)”, the “apparent KD of MS2 coat protein” value under setting [1] is 10.3 nM.

As to “GCAGCUAGUUCAGGAUAUCAGCACGUUUAGUGCUGAGAAGGGAACAUGAGGAUCACCCAUGUGAUCAAUGCUGCAAUUUUAAUU [ENG1/12-A2] (Eterna round: R96, puzzle: Exclusion NG 1)”, the “apparent KD of MS2 coat protein” value by setting is: (input ligand: FMN 200 uM) 1470 nM; under setting [1], 776 nM; (input ligand: none) 717 nM.

For “GCAGGCGUCUAGGCUCGUCUUAUUUUGAGAAGAUUGAUAACAUGAGGAUCACCCAUGUUUGUGGGAGAGUUGGAGUG [JR_SV3TOV2_Sub014] (puzzle: Sensor v3, turn-off variant 2)”, the “apparent KD of MS2 coat protein” value reads like this: (Eterna round: R95, input ligand: FMN 200 uM) 159 nM; under setting [2], 258 nM; (Eterna round: R95, input ligand: none) 209 nM.

Take “GCAUACUAAGGAUAUACAUGAGGAUCACCCAUGUUGCCAAAUGGCAGCAUCACCUGGAGUAGAAGGUAGAUGUA [Atanbi] (puzzle: Exclusion 3)”: under setting [2], the “apparent KD of MS2 coat protein” value stood at 29.7 nM.

In the case of “GCAUCCAAAGUGAGGAUAUACCUCUGGAUACAGAGGUAGAAGGCACAUGAGGAUCACCCAUGUUCCUAGGAUGC [Fiskers BMX 4 - 38] (puzzle: Brourd's mod of Exclusion 4)”, the “apparent KD of MS2 coat protein” value under setting [2] came to 13.3 nM.

As for “GCAUCCAAAGUGAGGAUAUACCUCUGGAUACAUAGGUAGAAGGCACAUGAGGAUCACCCAUGUUCCUAGGAUGC [Fiskers BMX 4 - 32] (puzzle: Brourd's mod of Exclusion 4)”, the “apparent KD of MS2 coat protein” value under setting [2] is 25 nM.

Regarding “GCAUCCAUAGUGAGGAUAUACCUCUGGAUACAUAGGUAGAAGGCACAUGAGGAUCACCCAUGUUCCUAGGAUGC [Fiskers BMX 4 - 33] (puzzle: Brourd's mod of Exclusion 4)”, under setting [2], the “apparent KD of MS2 coat protein” value was determined as 16.9 nM.

As for “GCAUUACAUGAGGAUCACCCAUGUGAGGAUAUUAGGGUCGCAAGCACGUCUAGCAGACUGAGAAGGCACGGGUG [Eternabot (L1) Solution 45] (Eterna round: R97, puzzle: Exclusion 1)”, the “apparent KD of MS2 coat protein” value (input ligand: FMN 200 uM) turned out to be 139 nM and the “apparent KD of MS2 coat protein” value (input ligand: none) was 192 nM.

On to “GCAUUGAGUGUGAGGAUAUGCUGGUCCUUGGAUCAGCAGAAGGCACAUGAGGAUCACCCAUGUGAAUACAAUGC [JL bmx4 3.13] (puzzle: Brourd's mod of Exclusion 4)”, for which, under setting [2], the “apparent KD of MS2 coat protein” value was 18.9 nM.

For the sequence “GCAUUUGAGCAGGAUAUAGCCUGAACAUAAUGGUUAGAAGGGCUCACAUGAGGAUCACCCAUGUGGUGUCCUAA [Rateria] (puzzle: Exclusion 6)”, the “apparent KD of MS2 coat protein” value under setting [2] was determined as 11.6 nM.
